Test results published in PMC3958349.

Tests used:
[1] = target: eGFP-GR (wild-type mouse glucocorticoid receptor with eGFP fused to its N-terminal end) (mouse) (UniProt P06537); test: number and brightness (N&B) analysis; living BHK cells transiently transfected with pEGFP-GR or pEGFP-GR^A465T; 10 µM 21OH-6,19OP; nuclear brightness ε
[2] = target: eGFP-GR (wild-type mouse glucocorticoid receptor with eGFP fused to its N-terminal end) (mouse) (UniProt P06537); test: number and brightness (N&B) analysis; living GR-null MEF cell lines stably expressing eGFP-GR or its mutants at endogenous levels; 100 nM Dex or 100 nM Cort; nuclear brightness ε
[3] = target: eGFP-GR (wild-type mouse glucocorticoid receptor with eGFP fused to its N-terminal end) (mouse) (UniProt P06537); test: number and brightness (N&B) analysis; living BHK cells transiently transfected with pEGFP-GR or its mutants; 100 nM (0.1 µM) Dex or 100 nM Cort for at least 1 h; nuclear brightness ε relative to vehicle; ligand washout also tested (Cort withdrawal reduced the dimers, Dex washout did not)
mCherry-GR (wild type) = mCherry-GR (wild type) (UniProt P06537); test: number and brightness (N&B) analysis; living 3617 cells transiently expressing mCherry, mCherryGRwt, GFP and/or GFP-p65; 300 nM Cort and/or 10 ng/ml TNF-α; nuclear brightness ε in the green and red channels
eGFP-GR^A465T (mouse) [4] = target: eGFP-GR^A465T (mouse) (UniProt P06537); test: number and brightness (N&B) analysis; living GR-null MEF cell lines stably expressing eGFP-GR or its mutants at endogenous levels; 100 nM Dex or 100 nM Cort; nuclear brightness ε
eGFP-GR^A465T (mouse) [5] = target: eGFP-GR^A465T (mouse) (UniProt P06537); test: number and brightness (N&B) analysis; living 3617 cells (tetracycline to inhibit the stable GFP-GR) transiently transfected with pEGFP-GR or its mutants; 100 nM Dex or 100 nM Cort for at least 30 min; nuclear brightness ε

mCherry-GR (wild type), sequence (P06537 whole entry): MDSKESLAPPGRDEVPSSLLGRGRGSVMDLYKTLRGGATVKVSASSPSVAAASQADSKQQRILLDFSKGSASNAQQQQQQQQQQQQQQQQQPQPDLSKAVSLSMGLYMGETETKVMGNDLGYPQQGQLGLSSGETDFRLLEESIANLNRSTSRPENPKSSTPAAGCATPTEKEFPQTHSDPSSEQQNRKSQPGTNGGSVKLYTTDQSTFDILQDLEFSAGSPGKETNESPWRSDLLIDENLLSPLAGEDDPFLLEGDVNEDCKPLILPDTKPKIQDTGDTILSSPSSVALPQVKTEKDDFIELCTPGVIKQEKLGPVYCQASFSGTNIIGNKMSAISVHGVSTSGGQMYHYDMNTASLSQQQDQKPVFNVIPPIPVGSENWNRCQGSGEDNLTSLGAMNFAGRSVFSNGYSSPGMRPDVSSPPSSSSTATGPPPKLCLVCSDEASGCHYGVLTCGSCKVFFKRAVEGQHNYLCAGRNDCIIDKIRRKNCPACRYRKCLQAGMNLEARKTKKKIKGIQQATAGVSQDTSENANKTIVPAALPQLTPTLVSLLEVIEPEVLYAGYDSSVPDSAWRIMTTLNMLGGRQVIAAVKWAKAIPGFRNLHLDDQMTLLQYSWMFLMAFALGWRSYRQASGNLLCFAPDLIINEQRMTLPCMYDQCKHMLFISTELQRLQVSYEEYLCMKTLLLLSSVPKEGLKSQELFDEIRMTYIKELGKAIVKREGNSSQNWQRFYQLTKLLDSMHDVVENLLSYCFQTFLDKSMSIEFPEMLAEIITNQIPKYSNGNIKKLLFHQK

Q: How did the stoichiometry N [1] turn out when “eGFP-GR (wild-type mouse glucocorticoid receptor with eGFP fused to its N-terminal end) (from UniProt P06537 1-792)” was run?
A: The stoichiometry N was 2.

Q: And the stoichiometry N [2]?
A: The stoichiometry N was 2.

Q: And the stoichiometry N [3]?
A: Its stoichiometry N is 2.

Q: With “mCherry-GR (wild type) (from UniProt P06537 1-792) (receptor)” as the substance, how does the stoichiometry N (mCherry-GR (wild type)) read?
A: The stoichiometry N was 2.

Q: Which results are given for “eGFP-GR^A465T (from UniProt P06537 1-792) (receptor)”?
A: stoichiometry N (eGFP-GR^A465T (mouse) [4]): 2; stoichiometry N (eGFP-GR^A465T (mouse) [5]): 2
